Patent publication US20200399355A1 (University of California, published 2020)
Square brackets hold non-standard residues; d marks the D form. Ends that are not written are not given here. Cit = NC(=O)NCCC[C@H](N)C(=O)O

T1: Human CV peptide 60-75 (biotinylated citrullinated vimentin peptide) (human, also: biotinylated, position not given here)
T1 construct: Captured through biotin on streptavidin (ELISA plate or SPR chip); also called human citrullinated vimentin
T1 peptide: VYAT[Cit]SSAV[Cit]L[Cit]SSVP

T2: Murine CV peptide 60-75 (biotinylated citrullinated vimentin peptide) (murine, also: biotinylated, position not given here)
T2 construct: Captured through biotin on streptavidin in ELISA; also called murine citrullinated vimentin
T2 peptide: AYVT[Cit]SSAV[Cit]L[Cit]SSVP

B1: CV.28z-CAR (Anti-CV CAR-CD28z) on human Tregs (protein)
chain: EVKLIESGGGLVEPGRSLRLACTTSGFTFADYGLSWFRQGPGKGLEWVGFTGPKHLGETTECAPSVEDRCTISRDDSKSTVYLQMHRLQHEDTAVYFCVGPWFGDLLMWGQGTLVTVSSASSGGSTSGSGKPGSGEGSSGSARAIQMTQSPSSLSASVGDRVSITCRATQDISTSLGWYHQRPGKAPRLLIYGASKVQTGVPSRFSGNGSGTEFTLTISSLQPEDIGTYYCLQDDGFPFTVGQGTKLDIKRAAAIEVMYPPPYLDNEKSNGTIIHVKGKHLCPSPLFPGPSKPFWVLVVVGGVLACYSLLVTVAFIIFWVRSKRSRLLHSDYMNMTPRRPGPTRKHYQPYAPPRDFAAYRSRVKFSRSADAPAYQQGQNQLYNELNLGRREEYDVLDKRRGRDPEMGGKPRRKNPQEGLYNELQKDKMAEAYSEIGMKGERRRGKGHDGLYQGLSTATKDTYDALHMQALPPR
B2: CV.41BBz-CAR (Anti-CV CAR-41BBz) on human Tregs (protein)
chain: EVKLIESGGGLVEPGRSLRLACTTSGFTFADYGLSWFRQGPGKGLEWVGFTGPKHLGETTECAPSVEDRCTISRDDSKSTVYLQMHRLQHEDTAVYFCVGPWFGDLLMWGQGTLVTVSSASSGGSTSGSGKPGSGEGSSGSARAIQMTQSPSSLSASVGDRVSITCRATQDISTSLGWYHQRPGKAPRLLIYGASKVQTGVPSRFSGNGSGTEFTLTISSLQPEDIGTYYCLQDDGFPFTVGQGTKLDIKRAAAIEVMYPPPYLDNEKSNGTIIHVKGKHLCPSPLFPGPSKPFWVLVVVGGVLACYSLLVTVAFIIFWVKRGRKKLLYIFKQPFMRPVQTTQEEDGCSCRFPEEEEGGCELRVKFSRSADAPAYQQGQNQLYNELNLGRREEYDVLDKRRGRDPEMGGKPRRKNPQEGLYNELQKDKMAEAYSEIGMKGERRRGKGHDGLYQGLSTATKDTYDALHMQALPPR
B3: BVCA1 scFv (soluble CV-specific scFv, VH-linker-VL) (scFv)
scFv: EVKLIESGGGLVEPGRSLRLACTTSGFTFADYGLSWFRQGPGKGLEWVGFTGPKHLGETTECAPSVEDRCTISRDDSKSTVYLQMHRLQHEDTAVYFCVGPWFGDLLMWGQGTLVTVSSASSGGSTSGSGKPGSGEGSSGSARAIQMTQSPSSLSASVGDRVSITCRATQDISTSLGWYHQRPGKAPRLLIYGASKVQTGVPSRFSGNGSGTEFTLTISSLQPEDIGTYYCLQDDGFPFTVGQGTKLDIKRAAA
notes: Produced in E. coli periplasm; also called anti-CV scFv; single-chain variable fragment (scFv) synthesized from BVCA1 antibody; not shown: tags of the pSYN-expressed protein (detected with anti-c-Myc 9E10, purified on Ni-NTA)

Assays:
[1] = molecular target: biotinylated CV peptide (Innovagen), CV60-75, on streptavidin; assay: flow cytometry of transduced Tregs stained with biotinylated-CV-peptide/streptavidin-FITC tetramer (y axis, 'CAR+ cells') and EGFRt antibody (x axis)
[2] = molecular target: biotinylated CV peptide (Innovagen), CV60-75, on streptavidin; assay: flow cytometry of transduced Tregs stained with biotinylated-CV-peptide/streptavidin-FITC tetramer (y axis, 'CAR+ cells') and EGFRt antibody (x axis); number printed under the right half of the panel, taken as the lower right quadrant
[3] = molecular target: T1, Human CV peptide 60-75 (biotinylated …); assay: SPR (Biacore T100), biotinylated CV peptide on streptavidin-coated sensor chip, scFv injected from 400nM down to 12.5nM; fit table under the sensorgrams, column ka (1/Ms)
Protocol: (§1) Assessment of the binding specificity and affinity of BVCA1 antibodies and scFv to CV peptide: The binding specificity of BVCA1 IgG and scFv were assessed by ELISA. 96-well ELISA plates were coated 0/N at 4° C. with 50 μl Streptavidin at 10m/ml. Wells were washed three times and blocked with 2000 of 1×PBS 1% BSA for 1 h at RT and washed again. 1000 of biotinylated peptides at 10 ug/ml diluted in PBS 1% BSA were added and incubated for 1 h at RT. Wells were then washed three times. 1000 of BVCA1 IgG or scFv or isotype control were added at various concentrations (serial dilution). […] Reaction was stopped with 50 11.1 of NaOH 3M after 15 to 30 min and absorbance was read in a microplate reader at 405 nm. Kinetics and affinities of BVCA1 Ig and scFv to CV peptide were analyzed by surface plasmon resonance using Biacore T100 (GE healthcare). […]

[4] = molecular target: T1, Human CV peptide 60-75 (biotinylated …); assay: SPR (Biacore T100), biotinylated CV peptide on streptavidin-coated sensor chip, scFv injected from 400nM down to 12.5nM; fit table under the sensorgrams, column kd (1/s)
Protocol: as §1

[5] = molecular target: T1, Human CV peptide 60-75 (biotinylated …); assay: SPR (Biacore T100), biotinylated CV peptide immobilised on streptavidin-coated chip, scFv injected
Protocol: as §1

[6] = molecular target: T1, Human CV peptide 60-75 (biotinylated …); assay: SPR (Biacore T100), biotinylated CV peptide on streptavidin-coated sensor chip, scFv injected from 400nM down to 12.5nM; fit table under the sensorgrams, column KD (M)
Protocol: as §1

[7] = molecular target: T2, Murine CV peptide 60-75 (biotinylated …); assay: ELISA, biotinylated peptide on streptavidin-coated plate, scFv detected with anti-c-Myc 9E10 and anti-mouse IgG-AP, absorbance 405 nm
Protocol: as §1

[8] = molecular target: T1, Human CV peptide 60-75 (biotinylated …); assay: as above
Protocol: as §1

| Molecule | % of cells CVpep-SA-FITC+ EGFRt+ (upper right quadrant) [1] [%] | % of cells CVpep-SA-FITC+ EGFRt- (upper left quadrant) [1] [%] | % of cells CVpep-SA-FITC- EGFRt+ (lower right quadrant; the number stands below the panel) [2] [%] | % of cells CVpep-SA-FITC- EGFRt+ (lower right quadrant) [1] [%] | other results |
| --- | --- | --- | --- | --- | --- |
| CD19.28z-CAR on human Tregs | 1.5 | 0.1 | 72.9 | – | – |
| CD19.41BBz-CAR on human Tregs | 0.5 | – | 63.4 | – | – |
| B1 | 47.5 | 0.6 | – | 20.7 | – |
| B2 | 55.4 | 0.6 | – | 18.9 | – |
| B3 | – | – | – | – | kon [3]: 19000 M⁻¹ s⁻¹; koff [4]: 0.00377 s⁻¹; Kd [5]: 0.198 µM; Kd [6]: 0.198 µM; EC50 (read off the curve) [7]: ~2 ng/mL; EC50 (read off the curve) [8]: ~2 ng/mL |
